We go through four molecules from US20240043512A1.

The assay concerns the target IM-CA22. Description: competition ELISA: 0.5 µg/mL peptide added to prevent the binding of AS-SPIK with IM-CA22; inhibition rate from OD value with vs without peptide.
IM-CA22, sequence (VH, as listed by the source, chain 1 of 2): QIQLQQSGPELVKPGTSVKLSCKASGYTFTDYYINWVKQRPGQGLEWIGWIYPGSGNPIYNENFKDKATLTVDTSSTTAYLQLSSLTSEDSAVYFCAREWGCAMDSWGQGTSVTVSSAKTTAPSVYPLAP
IM-CA22, sequence (VL, as listed by the source, chain 2 of 2): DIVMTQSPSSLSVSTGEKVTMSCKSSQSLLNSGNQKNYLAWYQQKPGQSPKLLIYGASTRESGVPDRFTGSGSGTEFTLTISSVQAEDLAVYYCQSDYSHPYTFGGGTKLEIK

Take SLSGNTGAD [SPIK7]: the Inhibition % amounted to 6%. On to SGNTGADSL [SPIK5], for which the Inhibition % turned out to be 5%. The molecule LSGNTGADS [SPIK6] returned an Inhibition % of 6%. To GNTGADSLG [SPIK4] belongs 6%.
